{"source": "paper PMC4005659", "about": "“TcaR–ssDNA complex crystal structure reveals new DNA binding mechanism of the MarR family proteins”", "binders": {"B1": {"name": "17-mer GC-rich ssDNA (ssDNA)", "DNA": "CGCAGCGCGCAGCCCTA"}}, "target": "TcaR (Staphylococcus epidermidis RP62A (ATCC …, UniProt A0A0H2VJZ8 1-151))", "test": "X-ray crystallography; 1:1 TcaR dimer:ssDNA; 40% ethylene glycol, 0.1 M Tris pH 7.0; 3.6 A; EMSA: 20 mM Tris-HCl pH 8.0, 150 mM KCl, 0.1 mM MgCl2, 0.05 mM EDTA, 12.5% glycerol, 0.1 mM DTT, 1 mg/ml BSA, 15 min, room temperature; ssDNA 12 uM, TcaR 2-24 uM", "details": "protein: recombinant; tags: N-terminal His6; chain copies: 2; single strand"}
{"binder": "B1", "values": [{"measurement": "binding result", "result": "binds"}]}
